Source: patent US8841421B2, “S100A9 interaction screening method” (Active Biotech, AB, priority 2007, dated 2014)
Each block holds one molecule with its values, some of them ahead of it.

Columns and labels:
[1] = target: T1, S100A9 binding to immobilized human TLR4/MD-2 complex (Homo sapiens, UniProt P06702); experiment: Biacore competition assay: displacement of S100A9 binding to immobilized TLR4/MD-2; conditions: sigmoidal dose-response (variable slope) fit
T1 construct: made in house; host or cells: E. coli
T1 sequence (P06702 1-114): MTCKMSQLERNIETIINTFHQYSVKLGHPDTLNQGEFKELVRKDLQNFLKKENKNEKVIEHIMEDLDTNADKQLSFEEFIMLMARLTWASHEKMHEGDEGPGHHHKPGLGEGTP
Protocol: Sensograms from top to bottom represent: S100A9 without and with 7.8125, 15.625, 31.25, 62.5, 125, 250, 500 and 1000 μM compound A as competitor. In (B), binding data is plotted as an inhibition curve. […] Arrows in (A) indicate start of the association phase (1), i.e. injection of S100A9±competitor, and dissociation phase (2), where running buffer is pumped over the surface. Injection time, flow rate and regeneration conditions were as in FIG. 1. HBS-P containing 1 mM CaCl2 and 10 μM ZnCl2 (Robinson et al. 2002) was used as running and sample buffer.
Binding analysis was performed using the “surface plasmon resonance” (SPR) technology with a Biacore 3000™ system. This technology allows analysis of an interaction between proteins and small molecules in a real-time and label-free manner. A protein or low-molecular weight compound is injected over a surface (a CM5 sensor chip) with a covalently coupled ligand and the signal produced, expressed as resonance units (RU), is directly proportional to the number and mass of the molecule interacting with the ligand on the surface. […]
(§1) Recombinant S100A9, expressed as the full-length sequence of native protein in E. coli was obtained using a four-step purification protocol. […] Buffer was changed to HBS-P using the Fast Protein Desalting Spin Columns and concentration determined in the BCA protein assay from Pierce with bovine albumin as standard. […]

[2] = target: T2, S100A9 binding to immobilized RAGE (Homo sapiens, UniProt P06702); experiment: Biacore competition assay: displacement of S100A9 binding to immobilized RAGE; conditions: for IC50, displacement of S100A9 binding to RAGE: 200 nM S100A9, log-logit plot, linear regression
T2 construct: made in house; host or cells: E. coli
T2 sequence (P06702 1-114): T1 sequence (P06702 1-114)
Protocol: Sensorgrams from top to bottom represent: S100A9 without and with 15.625, 31.25, 62.5, 125, 250, 500 and 1000 μM compound A as competitor and from sample buffer without S100A9 and competitor. In (B), binding data is plotted as an inhibition curve (♦) and the response for S100A9 in the absence of competitor (dotted line). In (C), binding data is plotted after log-logit transformation. […] Arrows in (A) indicate start of the association phase (1), i.e. injection of S100A9±competitor, and dissociation phase (2), where running buffer is pumped over the surface. Injection time, flow rate and regeneration conditions were as in FIG. 1.
Binding analysis was performed using the “surface plasmon resonance” (SPR) technology with a Biacore 3000™ system. This technology allows analysis of an interaction between proteins and small molecules in a real-time and label-free manner. A protein or low-molecular weight compound is injected over a surface (a CM5 sensor chip) with a covalently coupled ligand and the signal produced, expressed as resonance units (RU), is directly proportional to the number and mass of the molecule interacting with the ligand on the surface. Immobilization, regeneration scouting, surface performance tests and binding studies were conducted basically according to the instructions by the manufacturer. Kinetic evaluation of binding data was carried using the BIAevaluation Software Version 3.2 (Biacore AB). Optimization of conditions for immobilization and binding analysis is carried out for each interaction to be studied. […]
Recombinant human RAGE was obtained from R&D Systems (cat. No. 1145-RG) as a fusion protein of the extracellular domain of RAGE, comprising a.a. […] The chimeric protein was expressed in the mouse myleoma cell line NSO as a disulfide-linked homo-dimeric protein with a calculated molecular mass of 61 kDa. […]
Recombinant S100A9, expressed as the full-length sequence of native protein in E. coli was obtained using a four-step purification protocol. […]

human S100A9 = target: T3, human S100A9 (Homo sapiens, UniProt P06702); experiment: Biacore competition assay: S100A9 binding to immobilized amino-linked Compound A; conditions: sigmoidal dose-response (variable slope) fit
T3 construct: made in house; host or cells: E. coli
T3 sequence (P06702 1-114): T1 sequence (P06702 1-114)
Protocol: The anti-S100A9 mAb 43/8 ability to block the binding of human S100A9 to amino-linked Compound A was measured by BIACORE™ direct binding assay. The assay was performed by coating amino-linked Compound A on a CM5 chip using standard amine coupling. S100A9 at 100 nM was injected over immobilized Compound A in the absence or presence of mAb 43/8 for 3 min at a flow rate of 30 μl/min in sample buffer (HBS-P buffer containing 1 mM Ca^2+ and […]) (1; association phase), followed by injection of sample buffer (2; dissociation phase).
Responses at late association phase, obtained after injection of 100 nM S100A9, pre-incubated for at least 1 h at room temperature ±12.5-500 nM monoclonal anti-S100A9 antibody, over immobilized Compound A were plotted versus concentration of anti-S100A9 antibody.
Samples were injected for 3 min at 30 μl/min in HBS-P buffer over amine coupled RAGE,TLR4/MD-2 and Compound A. Binding +/− competitor was calculated as response at lateassociation phase or by fit of sensorgrams to a 1:1 Langmuir model. ICso values were calculated by fitting data to a sigmoidal dose-response (variable slope) model in Graph-Pad Prism.

immobilized RAGE = target: T4, immobilized RAGE (Homo sapiens, UniProt Q15109); experiment: Binding of S100 proteins to immobilized RAGE (Biacore); conditions: 200 nM protein
T4 construct: the extracellular domain of RAGE, comprising a.a; 1-344; purchased R&D Systems 1145-RG; host or cells: mouse myeloma cell line NS0
T4 sequence (Q15109 23-344): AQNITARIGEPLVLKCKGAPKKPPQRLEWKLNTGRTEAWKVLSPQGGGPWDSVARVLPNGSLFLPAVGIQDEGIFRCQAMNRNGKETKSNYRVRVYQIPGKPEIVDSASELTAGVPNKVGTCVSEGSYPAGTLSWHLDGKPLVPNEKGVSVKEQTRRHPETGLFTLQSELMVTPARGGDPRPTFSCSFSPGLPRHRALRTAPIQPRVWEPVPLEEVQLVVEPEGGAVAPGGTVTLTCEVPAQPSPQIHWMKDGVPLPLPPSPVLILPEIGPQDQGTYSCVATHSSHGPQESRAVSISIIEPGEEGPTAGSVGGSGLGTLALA
Protocol: Responses were obtained as Req values after fit of data to a 1:1 binding model or as the signal at late association phase (t˜235 s). Experimental conditions were as in FIG. 1. Signals were not corrected for mass contribution.
In vivo, S100A9 usually forms hetero-dimeric complexes with S100A8.
(§2) Binding analysis was performed using the “surface plasmon resonance” (SPR) technology with a Biacore 3000™ system. This technology allows analysis of an interaction between proteins and small molecules in a real-time and label-free manner. A protein or low-molecular weight compound is injected over a surface (a CM5 sensor chip) with a covalently coupled ligand and the signal produced, expressed as resonance units (RU), is directly proportional to the number and mass of the molecule interacting with the ligand on the surface. Immobilization, regeneration scouting, surface performance tests and binding studies were conducted basically according to the instructions by the manufacturer. Kinetic evaluation of binding data was carried using the BIAevaluation Software Version 3.2 (Biacore AB). Optimization of conditions for immobilization and binding analysis is carried out for each interaction to be studied. A biosensor analysis cycle consists of: (i) injection of S100A9 over the RAGE surface for 3 min (association phase) or (i) injection of S100A9 over the TLR4/MD-2 surfaces, in the absence or presence of 100 ng/mL LPS, for 3 min (association phase); (ii) injection of running buffer for 2.5 min (dissociation phase); (iii) injection of a 30 s pulse of 10 mM glycine-HCl, pH 2.0-2.125 (regeneration phase); and (iv) injection of running buffer for 2 min (stabilization after regeneration) at a flow rate of 30 μl/min.
Recombinant human RAGE was obtained from R&D Systems (cat. No. 1145-RG) as a fusion protein of the extracellular domain of RAGE, comprising a.a. 1-344, and the Fc region of human IgG1 via a peptide linker. The chimeric protein was expressed in the mouse myleoma cell line NSO as a disulfide-linked homo-dimeric protein with a calculated molecular mass of 61 kDa. Prior to covalent coupling to the sensor chip, buffer was changed to a standard Biacore buffer (10 mM Hepes, 0.15 M NaCl, pH 7.4, containing 0.005% v/v Surfactant P20; HBS-P) using Fast Protein Desalting Micro-Spin Columns (Pierce). RAGE was diluted in an immobilization buffer shown to give sufficient pre-concentration and then covalently coupled using the “Aim at immobilization level” function in the Biacore Wizard to obtain various coupling densities. Activity of immobilized RAGE was tested by injecting a specific anti-human RAGE monoclonal antibody over the surface. Due to extensive glycosylation of RAGE relative to that of the Fc domain and a higher mass of the latter, it was also assumed that chimeric RAGE/Fc will be coupled predominantly via the Fc domain and result in a semi-oriented coupling to the sensor chip. HBS-P, with a final concentration of 1 mM CaCl2 and 10 μM ZnCl2, was used as sample and running buffer throughout the study. For regeneration of the surface after each cycle, a pulse of 10 mM glycine-HCl, pH 2.125, was used. To determine optimal zinc concentration for binding of S100A9 protein to RAGE, the interaction was allowed to take place at a fixed calcium concentration (1 mM) and with the zinc concentration titrated from zero to ten μM.

human TLR4/MD-2 = target: T5, human TLR4/MD-2 (Homo sapiens, UniProt O00206+Q9Y6Y9); experiment: Biacore direct binding of S100A9 to amine-coupled TLR4/MD-2; conditions: 1:1 Langmuir binding model
T5 construct: human TLR4 (Glu 24-Lys 631), and 10× histidines; human MD-2 (Glu 17-ASN 160), and 10× histidines; human CD33 signal peptide (Met 1-Ala 16) (N); purchased R&D Systems 3146-TN/CF; host or cells: mouse myeloma cell line NS0
T5 sequence (O00206 24-631): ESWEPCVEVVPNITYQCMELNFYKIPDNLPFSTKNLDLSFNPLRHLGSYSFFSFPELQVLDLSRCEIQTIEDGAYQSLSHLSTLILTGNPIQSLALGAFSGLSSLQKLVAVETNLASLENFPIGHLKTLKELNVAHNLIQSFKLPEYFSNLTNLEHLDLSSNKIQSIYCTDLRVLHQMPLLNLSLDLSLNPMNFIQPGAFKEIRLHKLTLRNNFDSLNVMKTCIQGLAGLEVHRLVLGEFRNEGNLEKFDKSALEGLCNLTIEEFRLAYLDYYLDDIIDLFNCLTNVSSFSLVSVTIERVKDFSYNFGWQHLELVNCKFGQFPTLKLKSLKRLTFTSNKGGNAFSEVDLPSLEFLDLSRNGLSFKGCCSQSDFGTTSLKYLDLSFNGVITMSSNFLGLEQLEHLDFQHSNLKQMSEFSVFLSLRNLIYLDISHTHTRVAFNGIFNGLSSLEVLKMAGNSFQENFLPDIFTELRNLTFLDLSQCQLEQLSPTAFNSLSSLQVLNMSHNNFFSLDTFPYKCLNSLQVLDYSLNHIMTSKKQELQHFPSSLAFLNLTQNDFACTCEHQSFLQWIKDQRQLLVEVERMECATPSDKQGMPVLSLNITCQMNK
T5 sequence (Q9Y6Y9 17-160): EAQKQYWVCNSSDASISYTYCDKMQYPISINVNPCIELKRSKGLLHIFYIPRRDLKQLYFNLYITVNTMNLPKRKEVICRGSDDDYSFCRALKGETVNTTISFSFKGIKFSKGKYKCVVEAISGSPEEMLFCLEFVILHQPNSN
Protocol: The TOLL-like receptor 4 was immobilized on the sensor chip. Binding to S100A9 was detected. […] Sensorgrams from bottom to top represent injection of sample buffer in the absence of S100A9, 100 and 200 nM S100A9 after subtraction of the signal in the reference flow cell. Injection time was 3 min at a flow rate of 30 μL/min and regeneration was performed with a 30 μl pulse of 3 mM EDTA in HBS-P buffer (HBS-EP) for 60 s. Arrows indicate injection of sample (1; association phase), running buffer (2; dissociation phase) and regeneration solution (3). HBS-P containing 1 mM CaCl2 and 10 μM ZnCl2 (Robinson et al. 2002) was used as running and sample buffer. An apparent dissociation constant of […], on- and off-rates of 3.9×10^4 l/Ms and 3.5×10^−4 l/s, and maximal binding at 1.8×10^3 RU were calculated after fitting data to a 1:1 Langmuir binding model (Chi2 6.8).
as §2
Recombinant human TLR4/MD-2 was obtained from R&D Systems (cat. no. 3146-TN/CF) as a non-covalently associated protein of the respective extracellular domains. […]
as §1

IC50 [1]: 458 µM
IC50 ([2]; sigmoidal dose-response (variable slope) fit): 399 µM
IC50 (human S100A9): 873 µM
Molecule: COc1ccc(C2CNC(=O)C2)cc1OC1CCCC1 (racemic) [Rolipram, (+/−)-4-(3-cyclopentyloxy-4-methoxyphenyl)-2-pyrrolidone]

binding to RAGE (in words) (immobilized RAGE): weak or no binding
Molecule: S100A1: S100 protein, putative RAGE ligand [Compound S100A1]

binding to RAGE (in words) (immobilized RAGE): significantly lower binding
Molecule: S100A8/9 hetero-dimer: hetero-dimeric complex of S100A8 and S100A9

maximal binding (human TLR4/MD-2): 1.8×10^3 RU
off-rate (human TLR4/MD-2): 0.00035 L/s
on-rate (human TLR4/MD-2): 3.9×10^4 l/Ms
Kd (human TLR4/MD-2; read-out: apparent dissociation constant): 0.086 µM
binding to RAGE relative to next group of RAGE binders (AnxII, S100A12, S100A8/9) (immobilized RAGE): more than 10 fold
Molecule: S100A9: recombinant S100A9, full-length sequence of native protein expressed in E. coli; SEQ ID NO: 1 [Compound S100A9]

binding to RAGE (in words) (immobilized RAGE): weak or no binding
Molecule: S100B: S100 protein, putative RAGE ligand [Compound S100B]

IC50, displacement of S100A9 binding to RAGE [2]: 0.0257 µg/mL
Molecule: heparan sulfate

IC50, displacement of S100A9 binding to RAGE [2]: 0.0404 µg/mL
Molecule: heparin

binding to RAGE (in words) (immobilized RAGE): weak or no binding
B1: S100A12: S100 protein, putative RAGE ligand; purified from human granulocytes (protein)
chain: TKLEEHLEGIVNIFHQYSVRKGHFDTLSKGELKQLLTKELANTIKNIKDKAVIDEIFQGLDANQDEQVDFQEFISLVAIALKAAHYHTHKE

binding to RAGE (in words) (immobilized RAGE): weak or no binding
B2: S100P: S100 protein, putative RAGE ligand (protein, UniProt P25815 1-95, looked up)
Protein S100-P: MTELETAMGMIIDVFSRYSGSEGSTQTLTKGELKVLMEKELPGFLQSGKDKDAVDKLLKDLDANGDAQVDFSEFIVFVAAITSACHKYFEKAGLK
